Conditions in all cases: transfected HeLa cells; n = 3 per group; parent: est. 1.0; read off a plot
The target of one assay is Orai1 (UniProt Q96D31). Briefly: Co-IP (GLT-1 capture antibody, immunoblot for Orai1, band quantification). A general note: Immunoblotting shows a protein as a band on a membrane.
The target of assay [1] is stromal-interacting molecule 1 (STIM1) (UniProt Q13586). Briefly: Co-IP (GLT-1 capture antibody, immunoblot for STIM1, band quantification).
The target is the same in assay [2]. Briefly: Co-IP (STIM1 capture antibody, immunoblot for GLT-1, band quantification).

Chain of glutamate transporter GLT-1 (excitatory amino acid transporter 2, EAAT2), WT plasmid (P43006 whole entry, stated change not applied): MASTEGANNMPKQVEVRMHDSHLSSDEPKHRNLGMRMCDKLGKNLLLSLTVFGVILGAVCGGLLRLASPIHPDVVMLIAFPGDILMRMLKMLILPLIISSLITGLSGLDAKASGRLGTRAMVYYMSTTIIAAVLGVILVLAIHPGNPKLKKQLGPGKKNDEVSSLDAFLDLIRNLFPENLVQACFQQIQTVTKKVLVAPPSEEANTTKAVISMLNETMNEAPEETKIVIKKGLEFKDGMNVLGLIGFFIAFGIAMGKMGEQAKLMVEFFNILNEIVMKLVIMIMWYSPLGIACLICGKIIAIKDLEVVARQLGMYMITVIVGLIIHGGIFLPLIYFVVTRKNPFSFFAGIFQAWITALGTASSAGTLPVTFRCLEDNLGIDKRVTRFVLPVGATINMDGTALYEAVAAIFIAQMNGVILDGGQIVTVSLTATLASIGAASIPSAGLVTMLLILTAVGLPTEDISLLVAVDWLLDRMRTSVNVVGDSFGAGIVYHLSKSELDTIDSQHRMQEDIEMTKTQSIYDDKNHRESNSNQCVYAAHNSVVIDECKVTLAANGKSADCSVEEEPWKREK
Chain of stromal-interacting molecule 1 (STIM1) (Q13586 23-685): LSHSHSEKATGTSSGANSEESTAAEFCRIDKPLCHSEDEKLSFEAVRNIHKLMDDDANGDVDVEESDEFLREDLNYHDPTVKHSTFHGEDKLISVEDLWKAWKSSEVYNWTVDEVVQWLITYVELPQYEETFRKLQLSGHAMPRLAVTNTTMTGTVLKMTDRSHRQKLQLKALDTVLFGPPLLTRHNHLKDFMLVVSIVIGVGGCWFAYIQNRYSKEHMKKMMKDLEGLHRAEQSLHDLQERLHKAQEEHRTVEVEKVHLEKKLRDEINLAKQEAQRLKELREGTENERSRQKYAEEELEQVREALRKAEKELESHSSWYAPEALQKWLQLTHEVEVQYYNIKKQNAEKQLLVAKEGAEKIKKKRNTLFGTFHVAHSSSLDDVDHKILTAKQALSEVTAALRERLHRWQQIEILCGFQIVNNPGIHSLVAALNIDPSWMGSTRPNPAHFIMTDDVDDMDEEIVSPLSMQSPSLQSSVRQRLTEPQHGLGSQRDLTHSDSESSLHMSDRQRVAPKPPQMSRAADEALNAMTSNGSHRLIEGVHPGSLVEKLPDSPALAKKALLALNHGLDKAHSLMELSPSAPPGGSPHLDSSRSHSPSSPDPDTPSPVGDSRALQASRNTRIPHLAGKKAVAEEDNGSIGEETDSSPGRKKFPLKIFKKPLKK
Chain of Orai1 (Q96D31 whole entry): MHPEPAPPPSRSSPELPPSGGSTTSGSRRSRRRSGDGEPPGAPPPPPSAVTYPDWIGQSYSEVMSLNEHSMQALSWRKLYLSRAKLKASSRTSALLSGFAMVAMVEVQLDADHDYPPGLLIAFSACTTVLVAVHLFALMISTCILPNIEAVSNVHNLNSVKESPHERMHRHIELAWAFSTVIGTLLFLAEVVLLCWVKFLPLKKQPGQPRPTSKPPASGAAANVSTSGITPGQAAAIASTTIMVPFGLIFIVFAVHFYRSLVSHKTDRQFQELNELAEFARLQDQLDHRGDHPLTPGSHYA

In the case of “glutamate transporter GLT-1 (excitatory amino acid transporter 2, EAAT2), WT plasmid (from UniProt P43006) P289R”, the figures for the response (relative band intensity) (with Orai1; in assay [1]; in assay [2]) were 0.15, 0.1 and 0.1, respectively.

For the origin of these results see paper PMC9772344.
